From the Human Domainome abundance scans (Beltran et al. 2025)
± gives the uncertainty stated by the source.

B1: Chromodomain-helicase-DNA-binding protein 4, residues 365 to 417; numbered along this chain, Q14839 (parent)
chain: YETDHQDYCEVCQQGGEIILCDTCPRAYHMVCLDPDMEKAPEGKWSCPHCEKE

Variants of: B1
Assay: abundance fitness (aPCA) (normalised: wild type 0, dead -1); higher = more abundant; growth selection in yeast, the domain comes from the species named
Details: Homo sapiens

| Variant | abundance fitness |
| --- | --- |
| M30W | -0.119 ± 0.12 |
| M30F | -0.19 ± 0.14 |
| M30K | 0.115 ± 0.18 |
| M30R | -0.266 ± 0.099 |
| M30I | -0.02 ± 0.19 |
| M30T | 0.077 ± 0.16 |
| M30E | 0.075 ± 0.12 |
| M30G | -0.126 ± 0.086 |
| M30A | -0.064 ± 0.1 |
| M30D | -0.272 ± 0.12 |
| M30V | -0.137 ± 0.099 |
| M30L | -0.149 ± 0.075 |
| M30S | -0.228 ± 0.1 |
| M30H | -0.433 ± 0.2 |
| M30Q | -0.287 ± 0.17 |
| S46A | -0.18 ± 0.11 |
| S46N | 0.039 ± 0.17 |
| S46L | -0.168 ± 0.1 |
| S46C | 0.031 ± 0.16 |
| S46F | 0.125 ± 0.15 |
| S46T | -0.07 ± 0.15 |
| S46I | -0.489 ± 0.23 |
| S46W | 0.014 ± 0.12 |
| S46G | -0.23 ± 0.086 |

| Variant | abundance fitness |
| --- | --- |
| S46D | -0.168 ± 0.14 |
| S46K | -0.65 ± 0.18 |
| S46R | -0.137 ± 0.092 |
| S46H | 0.068 ± 0.3 |
| S46Y | -0.003 ± 0.16 |
| S46E | -0.039 ± 0.13 |
| S46P | -0.258 ± 0.14 |
| S46Q | 0.054 ± 0.14 |
| S46M | -0.197 ± 0.15 |
| W45P | -0.161 ± 0.22 |
| W45H | -0.119 ± 0.21 |
| W45G | 0.025 ± 0.085 |
| W45S | 0.098 ± 0.1 |
| W45V | 0.115 ± 0.11 |
| W45N | -0.051 ± 0.18 |
| W45K | -0.483 ± 0.27 |
| W45R | -0.162 ± 0.09 |
| W45E | 0.083 ± 0.16 |
| W45Y | -0.207 ± 0.18 |
| W45C | -0.101 ± 0.13 |
| W45D | -0.313 ± 0.2 |
| W45T | 0.085 ± 0.16 |
| W45L | -0.218 ± 0.097 |
| W45A | 0.005 ± 0.13 |

| Variant | abundance fitness |
| --- | --- |
| W45I | 0.057 ± 0.19 |
| W45F | -0.159 ± 0.15 |
| W45Q | 0.109 ± 0.14 |
| W45M | 0.179 ± 0.15 |
| D36R | -0.055 ± 0.12 |
| D36W | -0.37 ± 0.14 |
| D36N | 0.026 ± 0.2 |
| D36Q | -0.05 ± 0.19 |
| D36M | -0.185 ± 0.2 |
| D36F | -0.325 ± 0.19 |
| D36L | -0.5 ± 0.12 |
| D36A | -0.079 ± 0.12 |
| D36T | 0.078 ± 0.22 |
| D36E | 0.13 ± 0.17 |
| D36G | -0.079 ± 0.1 |
| D36K | 0.06 ± 0.18 |
| D36V | -0.052 ± 0.11 |
| D36Y | -0.657 ± 0.23 |
| D36H | 0.161 ± 0.23 |
| D36I | -0.245 ± 0.17 |
| D36S | 0.202 ± 0.11 |
| D36P | -0.136 ± 0.13 |
| M37Q | -0.103 ± 0.15 |
| M37N | 0.141 ± 0.23 |

| Variant | abundance fitness |
| --- | --- |
| M37T | -0.329 ± 0.12 |
| M37H | -0.217 ± 0.22 |
| M37S | 0.079 ± 0.12 |
| M37K | -0.242 ± 0.24 |
| M37W | 0.079 ± 0.12 |
| M37I | -0.023 ± 0.19 |
| M37R | 0.054 ± 0.095 |
| M37P | 0.026 ± 0.11 |
| M37D | -0.451 ± 0.23 |
| M37F | 0.24 ± 0.15 |
| M37E | -0.392 ± 0.14 |
| M37V | 0.076 ± 0.094 |
| M37L | -0.059 ± 0.11 |
| M37A | -0.067 ± 0.11 |
| M37G | -0.199 ± 0.1 |
| M37C | 0.34 ± 0.18 |
| D34I | -0.463 ± 0.2 |
| D34Q | -0.257 ± 0.2 |
| D34V | -0.094 ± 0.099 |
| D34H | -0.069 ± 0.18 |
| D34W | 0.009 ± 0.14 |
| D34C | 0.018 ± 0.16 |
| D34S | -0.146 ± 0.11 |
| D34G | 0.037 ± 0.094 |

| Variant | abundance fitness |
| --- | --- |
| D34L | -0.025 ± 0.097 |
| D34Y | -0.118 ± 0.15 |
| D34N | -0.091 ± 0.17 |
| D34R | -0.145 ± 0.092 |
| D34F | -0.282 ± 0.14 |
| D34K | -0.314 ± 0.12 |
| D34A | -0.07 ± 0.12 |
| D34T | -0.047 ± 0.14 |
| D34P | -0.149 ± 0.18 |
| G43S | -0.099 ± 0.12 |
| G43R | -0.09 ± 0.086 |
| G43E | 0.179 ± 0.15 |
| G43A | 0.061 ± 0.12 |
| G43F | -0.35 ± 0.18 |
| G43M | -0.151 ± 0.14 |
| G43H | -0.505 ± 0.26 |
| G43K | -0.012 ± 0.2 |
| G43I | -0.382 ± 0.22 |
| G43L | -0.232 ± 0.099 |
| G43P | -0.209 ± 0.15 |
| G43W | -0.164 ± 0.11 |
| G43T | -0.272 ± 0.15 |
| G43D | -0.164 ± 0.19 |
| G43N | -0.076 ± 0.21 |

| Variant | abundance fitness |
| --- | --- |
| G43Q | -0.078 ± 0.15 |
| G43V | -0.375 ± 0.12 |
| G43C | -0.217 ± 0.15 |
| P41R | 0.123 ± 0.094 |
| P41G | 0.151 ± 0.1 |
| P41T | -0.105 ± 0.16 |
| P41E | 0.07 ± 0.14 |
| P41V | -0.218 ± 0.12 |
| P41S | -0.046 ± 0.1 |
| P41N | 0.435 ± 0.23 |
| P41C | -0.212 ± 0.14 |
| P41Q | -0.109 ± 0.18 |
| P41A | 0.117 ± 0.12 |
| P41M | -0.06 ± 0.16 |
| P41K | -0.015 ± 0.18 |
| P41H | -0.378 ± 0.2 |
| P41Y | 0.022 ± 0.19 |
| P41F | 0.034 ± 0.17 |
| P41I | 0.055 ± 0.17 |
| P41L | -0.092 ± 0.1 |
| P41D | 0.022 ± 0.17 |
| C47E | -0.331 ± 0.14 |
| C47D | -0.468 ± 0.17 |
| C47G | -0.867 ± 0.11 |

| Variant | abundance fitness |
| --- | --- |
| C47A | -0.756 ± 0.12 |
| C47F | -0.565 ± 0.24 |
| C47H | -0.477 ± 0.33 |
| C47N | -0.5 ± 0.27 |
| C47M | -0.882 ± 0.17 |
| C47L | -0.75 ± 0.14 |
| C47K | -0.81 ± 0.2 |
| K39Y | -0.077 ± 0.17 |
| K39I | -0.125 ± 0.18 |
| K39N | -0.264 ± 0.23 |
| K39F | -0.472 ± 0.15 |
| K39S | -0.203 ± 0.1 |
| K39V | 0.1 ± 0.11 |
| K39W | -0.172 ± 0.11 |
| K39M | 0.115 ± 0.16 |
| K39R | -0.082 ± 0.093 |
| K39E | -0.077 ± 0.13 |
| K39C | -0.347 ± 0.12 |
| K39Q | -0.323 ± 0.18 |
| K39P | -0.094 ± 0.15 |
| K39A | -0.06 ± 0.14 |
| K39H | -0.237 ± 0.28 |
| K39T | -0.217 ± 0.15 |
